Measurements reported in US20260060994A1, “GLYCOSYLATED COMPOSITIONS AND METHODS OF USE” (Cy Biopharma AG, priority 2023, published 2026).

B1: GLY169: glycosyltransferase (UGT), SEQ ID NO: 26 (protein)
chain: MKKPELIFIPAPGVGHVISALEFAARLLGHDPRISITVLAIKAPFSSHLDAYTKSLVASQPRIALIDLPPVDPPPPELLRSVEHYVTVYIESYIPHVQRAVGEIQSSRSDSGSDRSVAGFVLDFFCTSMIDVADGFSLPSYIYLTSNAHFLDLMFHLPARHDQIGREARLSDPDLPLPNFANPVPVSVLPSAVLDGEAGGYAAYVKLARRFRDVRGIMVNTFMELERSALGSFSGGSWDGPAVYAVGPVIDPKGVPDPSLDRAHWEKIREWLDEQPPSSVVFLCFGSLGSFDADQVKEIASGIERSGHKFLWSLRPESSQSQLPVGFLERMRGRGIICGWTPQVEVLGHAAIGGFVSHCGWNSILESLWYGVPIVTWPIYAEQQLNAFTMVKELGLAVELRLDYKGQGIGGHLVPAEEIEKAVGRLMGDDAAETRKKVREMREAARNAVKEGGSSYDSIGRLIQDFINSIE
B2: GLY77: glycosyltransferase (UGT), SEQ ID NO: 8 (protein)
chain: MSTSELVFIPSPGAGHLPPTVELAKLLLHRDQRLSVTIIVMNLWLGPKHNTEARPCVPSLRFVDIPCDESTMALISPNTFISAFVEHHKPRVRDIVRGIIESDSVRLAGFVLDMFCMPMSDVANEFGVPSYNYFTSGAATLGLMFHLQWKRDHEGYDATELKNSDTELSVPSYVNPVPAKVLPEVVLDKEGGSKMFLDLAERIRESKGIIVNSCQAIERHALEYLSSNNNGIPPVFPVGPILNLENKKDDAKTDEIMRWLNEQPESSVVFLCFGSMGSFNEKQVKEIAVAIERSGHRFLWSLRRPTPKEKIEFPKEYENLEEVLPEGFLKRTSSIGKVIGWAPQMAVLSHPSVGGFVSHCGWNSTLESMWCGVPMAAWPLYAEQTLNAFLLVVELGLAAEIRMDYRTDTKAGYDGGMEVTVEEIEDGIRKLMSDGEIRNKVKDVKEKSRAAVVEGGSSYASIGKFIEHVSNVTI
B3: GLY73: glycosyltransferase (UGT), SEQ ID NO: 4 (protein)
chain: MEDAIVLYPSPGRGHLISMVELGKLILKNHPSFSITILILSEPNTNANSTAPNYVASSTTEYITTVNSTTPSITFHHLPPISEVPPSTSSFVELSYLIPRFNNQNLHQILKTISQTSKLKAFIIDFFCDAAFEVATNLDIPTYYFFTSGACYLAALLYRPTLHKKVDKSLKDLGNTLLDIPGLPPIQASDLPEPWKDRTSKEYQYSLNVAAHMAKSNGLLVNTFDLLETKAIKAISGGLCVPDRTTPPIFCIGPLISDSNQDVEDHECLNWLNSQPSRSVVFLCFGSLGLFSAKQLKEIAVGLENSGQRFLWVLRNPPSDNDKDPNLDELLPKGFLERTKEKGFVVKQWAPQVAVLRHDSVGGFVTHCGWNSVLEAVWCRVPMVGWPLYAEQRLNSVVLVEEIKLASGLNESEDGLVSAAELEKRVKELMDSEVGTEVRERVSGLRDEAVTAVKEGGSSHVALAKLAELWRQN
B4: GLY146: glycosyltransferase (UGT), SEQ ID NO: 18 (protein)
chain: MKKSELVFIPAPGIGHLVSALEFAKRLIDHDDRHSITVLSMKFPFTPFADEFTKSLVASHHGIQVIDLPPVDPPPPELLNSPENFVCAFIESLIPHVRNTLTDMLSSSSRVSGLVLDFFCLSLIDVGNELGVPSYMFLTSNSGFLGLMLHIPIRHNQKSAEFEESDAEVSLPGFWNPVPVSVLPGAVFDKDGGYSAYLKLAKRFRDTKGIIVNTFSELELDSVKSLSDGETPPVYMVGPVIDLKGQPNPSLDQAQREKIMHWLDDQPESSVVYLCFGSMGTFGAIQLREIATGLERSGHRFLWSMRVPQPAKGPDDILPEGFSERIGGRGLICGWAPQMEVLAHKAIKGFVSHCGWNSILESLWFGVPIATWPIYAEQQMNAFRMVKEFGLAVEMKLDYRLGDLVMADEIEIAVRRLMDDSDELRKKVKEMGEMARQAIIEGGSSYIAVGQLIEDILGSISCDN
B5: GLY108: glycosyltransferase (UGT), SEQ ID NO: 14 (protein)
chain: MGSQQEHIVMLPFMAQGHIIPFLALAKQIQQRTGFTITIANTPLNIQYLRTTISTSDDSSRPCIRLAELPFCSSDHGLPPNTENTEALSFHQIVDLFHASKTLQAPFHSLVSGIIEKEGRPPLCIISDVFFGWATEVAKSLGTSNVTFTTGGGYGTAAYISLWQNLPHRATDSDYFALPGFPDSCRFHITQLHQYLRAADGTDAWSRYFQPQIALSLDSSGWLCNTAEEIEPHGLEILRNYVKPPVWTIGPLLPPALLNHSLSSGSSIFGQRAWKVSGVSPEKCLDWLDKHPQSSVLYISFGSQNTISPSQMMELALGLEDSGKPFIWVIRPPVGFDIEGEFRAEWLPQNFEQRMAESNQGLIVHKWAPQLEILSHKSTGVFLSHCGWNSVMESLCVGVPIIGWPLAAEQCYNSKMLTEDMGVAVELTRGRQGALERKEVKRVIELVMDSKGKGEEMKKKATEIGEKIRDAMREGGSSLKAMDDFVSTMLSKRQGY
B6: GLY164: glycosyltransferase (UGT), SEQ ID NO: 24 (protein)
chain: MKEKAELVFIPSPSVGHLVSVIVFAKRLLLLDRDNAAGSNNSFSITVLVMQEHTATASDNDAHIKSLAGAGATADVSIRFIGVPKMNPPPLDYFKSPEKFITEYVDSHKDCIKEAIIEHVLNNNVKIAGLVLDFFCSSMIDTANELGVPSYVFFTSGAAFLGFVLHLPTRGGEEFEESEADSADIFTYANPVPYRVLPSLCFNKHGGFSAFENFGRRFKETKGIIVNTFEELESHAVEYLMKCDGVPPVYNVGPMIDLHGDIHARPRGGGTQRDEIIRWLDDQPASSVVFLCFGSMGSFGEEQIKEVASGLGKSGVRFLWSLRKTPPKDRPEMPGEYTCVEDILPRGFQERSKGRGMICGWAPQKEVLAHSAIGGFVSHCGWNSILESVWFGVPIVTWPIYAEQQINAFQMVRDLGLAVELRLDYRRGTENHVMADELARAVGCVMDGDSEVRKRVKEVSEKARLALRDGGSSYAATGRLIEDLFGSVS
B7: GLY119: glycosyltransferase (UGT), SEQ ID NO: 16 (protein)
chain: MGSLGHQLHIFFLPFFAHGHMIPSVDMAKLFASRGIKTTIITTPLNAPFFSKTIQKTKELGFDINILTIKFPAAEAGLPEGYENTDAFIFSENAREMTIKFIKATTFLQAPFEKVLQECHPDCIVADVFFPWATDAAAKFGIPRLVFHGTSNFALSASECVRLYEPHKKVSSDSEPFVVPDLPGDIKLTKKQLPDDVRENVENDFSKFLKASKEAELRSFGVVVNSFYELEPAYADYYKKVLGRRAWNVGPVSLCNRDTEDKAGRGKETSIDHHECLKWLDSKKPNSVVYICFGSTTNFSDSQLKEIAAGLEASGQQFIWVVRRNKKGQEDKEDWLPEGFEERMEGVGLIIRGWAPQVLILDHEAIGAFVTHCGWNSTLEGITAGKPMVTWPIFAEQFYNEKLVTDVLKTGVGVGVKEWFRVHGDHVKSEAVEKTITQIMVGEEAEEMRSRAKKLGETARKAVEEGGSSYSDFNALIEELRWRRP

Experiment: Glycosylation of 4-OH-DMT by GLY enzymes (UDP-glucose), LC-UV/MS
Assay type: biochemical
Details: conditions of Examples 1 and 2 repeated for 4-HO-DMT; estimate from UV peak areas
Experimental: (§1) The assay conditions were: • 100 mM Tris-HCl, pH 7.4 • 5 mM MgCl2 • 1 mM KCl • 1.25 mM UDP-glucose • 0.5 mM 4-OH-MET • 5% (v/v) DMSO • 0.1 U/uL Fast AP phosphatase • 25% (v/v) GLY enzyme
(§2) Incubation was 24 house at 30° C. Reactions were terminated adding 3 volumes of 75% (v/v) ethanol.
(§3) LC separation was performed using an Agligen 1290 Infinity II UHPLC equipped with a Phenomenex Kinetex XB-C18 column (1.7 um, 100 angstroms, 100×2.1 mm) and 4-HO-MET was detected by absorbance at 210 nm and 268 nm with an Agilent 1260 Infinity II DAD.
(§4) 0.1% Formic acid in water (A) and 0.1% Formic acid in acetonitrile (B) were used as the mobile phases for the elution gradient, with a flow rate of 0.4 ml/min. Retention time for 4-HO-MET using this type of instrument under these condition was 2.6 min. The system was coupled to an Ultivo Triple Quadrupole MS. To verify the presence of possible glycoside products, as SIM (Selected Ion Monitoring) method was used on the MS to analyse for the m/z 381 (theoretical mass to chart ratio of 4-HO-MET-glucoside) and m/z 219 (theoretical mass to charge ratio of 4-HO-MET).
(§5) The enzymes giving the additional peak putatively corresponding to the 4-HO-MET-β-D-glucoside are listed below. […] A correct quantification of the product is not possible without a standard for the specific molecule. However, based on the assumption that the ratio area-to-concentration in the UV chromatograms will be similar to 4-HO-MET, estimates of the relative abundance for the additional peak are also given, expressed as percentage of converted 4-HO-MET. GLY enzymes hits are ranked according to their estimated conversion efficiency.
(§6) The experiments described in Examples 1 and 2 above were repeated for 4-OH-MiPT, 4-HO-DMT and 5-HO-DMT
Below is the corresponding data for 4-OH-DMT and 5-HO-DMT.

| Molecule | 4-OH-DMT GLY % |
| --- | --- |
| B1 | 25.0% |
| B2 | 30.2% |
| B3 | 14.0% |

Experiment: Glycosylation of 4-OH-EPT by GLY enzymes (UDP-glucose), LC-UV/MS
Assay type: biochemical
Details: conditions of Examples 1 and 2 repeated for 4-OH-EPT; estimate from UV peak areas
Experimental: as §1, §2, §3, §4, §5
The experiments described in Examples 1 and 2 above were repeated for 4-OH-EPT.
Below is the corresponding data for 4-OH-EPT.

| Molecule | 4-OH-EPT GLY % (percentage of converted 4-OH-EPT) |
| --- | --- |
| B1 | 33% |
| B2 | 66.2% |
| B4 | 5.3% |

Experiment: Glycosylation of 4-OH-MiPT by GLY enzymes (UDP-glucose), LC-UV/MS
Assay type: biochemical
Details: conditions of Examples 1 and 2 repeated for 4-OH-MiPT; estimate from UV peak areas
Experimental: as §1, §2, §3, §4, §5, §6
Below is the corresponding data for 4-OH-MiPT.

| Molecule | 4-OH-MiPT GLY % (percentage of converted 4-OH-MiPT) |
| --- | --- |
| B1 | 71.5% |
| B2 | 85% |
| B4 | 23.2% |

Experiment: Glycosylation of 4-HO-MET by GLY enzymes (UDP-glucose), LC-UV/MS
Assay type: biochemical
Details: 0.5 mM 4-OH-MET, 1.25 mM UDP-glucose, 25% (v/v) GLY enzyme, 24 h at 30° C.; estimate from UV peak areas
Experimental: 4-HO-MET was dissolved in 100% (v/v) DMSO to a concentration of 10 mM. The solution was stored at −20° C. prior to use.
FastAP phosphatase (1 U/uL) from ThermoFisher Scientific (catalog no. EF0651).
GLY enzyme suspensions contain 10 mM Tris-HCl at pH7.4, 250 mM imidazole and 50% (v/v) glycerol.
as §1, §2, §3, §4
As standard, 4-HO-MET solutions at a concentrations of 500, 250, 125, 62.5, and 31.25 uM were prepared from the 10 mM stock and used for caliboration.
A representative example of the chromatograms obtained with a wavelength of 268 nm for the standard solutions resuspended in the reaction buffer, and the corresponding MS-SIM signal, is shown in FIG. 16. The peak corresponding to 4-HO-MET is indicated.
When analyzing the GLY reactions, 30 of them gave an additional peak with retention time 2.2 min (i.e. in the expected region for a 4-HO-MET glucoside) and molecular mass compatible with the expected glucoside product, together with a corresponding decrease in substrate concentration, compared to the no-enzyme controls.
The method was repeated using various GLY enzymes to produce 4-HO-MET glucosides.
as §5

| Molecule | 4-OH-MET GLY % (percentage of converted 4-HO-MET) |
| --- | --- |
| B1 | 52.3% |
| B5 | 8.7% |
| B6 | 10.2% |
| B2 | 66.5% |
| B3 | 7.4% |
| B7 | 6% |
